Measured values: US20150104459A1

Tests used:
[1] = target: M2 protein of influenza A/Japan/305/57 (H2N2), on inactivated whole virions (influenza A virus A/Japan/305/57 (H2N2)); test: ELISA, positive control antibody on inactivated whole virions
[2] = target: recombinant soluble homotrimeric HA of A/common magpie/Hong Kong/5052/07 (H5N1) (Influenza A virus A/common magpie/Hong Kong/5052/2007 (H5N1)); test: HA microarray, control mAb

Sequence of TCN-032 (8I10) (antibody) (VH): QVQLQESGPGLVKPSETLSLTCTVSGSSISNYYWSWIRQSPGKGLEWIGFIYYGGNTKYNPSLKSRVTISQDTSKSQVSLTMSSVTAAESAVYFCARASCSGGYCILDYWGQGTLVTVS
Sequence of TCN-032 (8I10) (antibody) (VL): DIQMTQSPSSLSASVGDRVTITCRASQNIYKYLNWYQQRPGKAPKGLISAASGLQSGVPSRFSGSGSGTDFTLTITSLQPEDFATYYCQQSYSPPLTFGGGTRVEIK

Substance	ELISA virus binding (OD450) [1]	Trimeric HA Binding RLU [2]
TCN-032 (8I10) (antibody)	3.61 OD450	–
TCN-202 (2N9) (antibody)	–	162 RLU
